Kd data for one molecule are collected here from publication PMC8540335.

Data set [1] deals with NCp7 (1 Zn2+ per protein, as purified) (HIV-1, UniProt P04591 378-432). Nature of the data set: SPR; 1 Zn2+ per protein; 50 RU RNA immobilized; SPR (Biacore X100, SA chip): 10 mM HEPES pH 7.4, 150 mM NaCl, 0.005% Tween-20, 25 C. The following applies: protein: recombinant; tags: 6xHis (pET28); label: 3'-biotin; hairpin. For orientation: In SPR one partner is held on a chip, and binding of the other changes the refractive index at the surface.

Data set [2] concerns the target 2NCp7 (NCp7 with 2 Zn2+) (HIV-1, UniProt P04591 378-432). The data set can be described thus: SPR; 2 Zn2+ per protein; 50 RU RNA immobilized; SPR (Biacore X100, SA chip): 10 mM HEPES pH 7.4, 150 mM NaCl, 0.005% Tween-20, 25 C. The following applies: protein: recombinant; tags: 6xHis (pET28); label: 3'-biotin; hairpin.

By Kd is commonly meant the concentration at which binding is half-saturated. With GGACUAGCGGAGGCUAGUCC (structured_RNA) [SL3-RNA], the results for the Kd in data set [1] and in data set [2] were 21.4 nM and 3.15 nM, respectively.
